PMC11118347 (bioRxiv, 2024)

Molecular target: the molecule itself
Test: crystal structure

B1: Human lens fiber membrane intrinsic protein MP20 (construct selected for crystallization) (natural protein)
chain: MYSFMGGGLFCAWVGTILLVVAMATDHWMQYRLSGSFAHQGLWRYCLGNKCYLQTDSIAYWNATRAFMILSALCAISGIIMGIMAFAHQPTFSRISRPFSAGIMFFSSTLFVVLALAIYTGVTVSFLGRRFGDWRFSWSYILGWVAVLMTFFAGIFYMCAYRVHECRRLSTPR
modifications: Janelia Fluor 549 NHS-ester labelling on column; membranes incubated with iodoacetamide
**Q.** Which “stoichiometry N” value does the source give for B1 here?
**A.** 4
